Data set [1] deals with the molecule itself. As to the kind of experiment: crystal structure.
Data set [2] has as its target T1, RelE1 toxin of Mycobacterium tuberculosis (crystallization construct, expressed as His-SUMO–RelE1) (Mycobacterium tuberculosis, UniProt O50461 1-97).
T1 sequence: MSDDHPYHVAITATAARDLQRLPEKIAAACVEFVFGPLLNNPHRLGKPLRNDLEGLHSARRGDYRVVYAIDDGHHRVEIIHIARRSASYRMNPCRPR
As to the kind of experiment: crystal structure. The note with it: both partners purified.

B1: RelB1 antitoxin of Mycobacterium tuberculosis (crystallization construct) (natural protein)
chain: MAVVPLGEVRNRLSEYVAEVELTHERITITRHGHPAAVLISADDLASIEETLEVLRTPGASEAIREGLADVAAGRFVSNDEIRNRYTAR
With B1, the binding result in data set [1] and in data set [2] was “binds” throughout.

The values above are taken from paper PMC12620021 (Nucleic Acids Research, 2025).
